The text below walks through data of publication PMC6527180, “A chloride ring is an ancient evolutionary innovation mediating the assembly of the collagen IV scaffold of basement membranes” (The Journal of Biological Chemistry, 2019).

By Kd is commonly meant a measure of binding affinity in units of concentration. A higher Kd goes with weaker binding. One may read the stoichiometry N as the number of molecules, sites or subunits per partner or assembly. In general, kon refers to the second-order rate constant of association. A high value points to faster complex formation.

The labels stand for the following.
B2: bovine α2 NC1 monomer (collagen IV α2-chain NC1 domain from bovine lens basement membrane) (domain or fragment)
chain: ISIGYLLVKHSQTDQEPMCPVGMNKLWSGYSLLYFEGQEKAHNQDLGLAGSCLARFSTMPFLYCNPGDVCYYASRNDKSYWLSTTAPLPMMPVAEEDIRPYISRCSVCEAPAVAIAVHSQDVSIPHCPAGWRSLWIGYSFLMHTAAGDEGGGQSLVSPGSCLEDFRATPFIECNGARGTCHYYANKYSFWLTTIPEQSFQGTPSADTLKAGLIRTHISRCQVCMKNL
notes: collagen IV α2-chain NC1 domain, bovine, monomer from tissue-extracted NC1 hexamer; Used as a mixture with the α1 NC1 monomer; also called tissue-derived α2 NC1 monomer; NC1 monomers; source: purified from bovine lens basement membrane
B3: human collagen IV α1-chain NC1 domain, third domain of the single-chain trimer (residues 1446–1669) (domain or fragment, UniProt P02462 1446-1669, looked up)
chain: FLVTRHSQTIDDPQCPSGTKILYHGYSLLYVQGNERAHGQDLGTAGSCLRKFSTMPFLFCNINNVCNFASRNDYSYWLSTPEPMPMSMAPITGENIRPFISRCAVCEAPAMVMAVHSQTIQIPPCPSGWSSLWIGYSFVMHTSAGAEGSGQALASPGSCLEEFRSAPFIECHGRGTCNYYANAYSFWLATIERSEMFKKPTPSTLKAGELRTHVSRCQVCMRRT
notes: collagen IV α1-chain NC1 domain, human, residues 1446–1669 (including final C-terminal residues); Not a free protein: joined by an APG linker to m5 on the single chain m1; also called α1 NC1 domain

In data set [1] the target is B2. Briefly: co-IP; bovine α1 and α2 NC1 monomers incubated with sc121 NC1-trimer in the presence of Cl−; formed hexamers immunoprecipitated by the FLAG tag of the recombinant trimer and their composition analysed (Fig. S3). As to conditions: both partners purified.
For data set [2], the target named is T1, bovine α1 NC1 monomer (collagen IV α1-chain NC1 domain from bovine lens basement membrane) (bovine, UniProt Q7SIB2 1441-1669).
T1 construct: collagen IV α1-chain NC1 domain, bovine, monomer from tissue-extracted NC1 hexamer; Used as a mixture with the α2 NC1 monomer; also called tissue-derived α1 NC1 monomer; NC1 monomers; source: purified from bovine lens basement membrane
T1 sequence: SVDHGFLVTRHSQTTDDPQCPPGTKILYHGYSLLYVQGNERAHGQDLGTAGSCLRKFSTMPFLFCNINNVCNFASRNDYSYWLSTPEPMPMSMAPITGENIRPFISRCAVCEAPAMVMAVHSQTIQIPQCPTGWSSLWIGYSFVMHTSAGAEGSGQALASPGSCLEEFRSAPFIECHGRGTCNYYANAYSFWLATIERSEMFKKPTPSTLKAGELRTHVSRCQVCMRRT
The description is as above. As to conditions: both partners purified.

Data set [3] concerns the molecule itself. Briefly: AUC; sedimentation equilibrium, 0.3 mg/ml in Cl−-free TNA (25 mM Tris acetate pH 7.5, 150 mM sodium acetate), 4 °C, 10,000 rpm, 48 h; trimer–to–hexamer self-association model (two single chains to one hexamer), trimer mass fixed to 74 kDa.
Data set [4] deals with the molecule itself. Briefly: crystal structure; X-ray, 1.9 Å, space group P4_(1)2_(1)2; protein 11 mg/ml in 5 mM Tris-HCl pH 7.5, 150 mM NaCl; hexamer by crystallographic 2-fold.
Data set [5] concerns the molecule itself. Briefly: SEC; in vitro hexamer assembly: 1 mg/ml in 25 mM Tris acetate pH 7.5, induced with 150 mM NaCl, 24 h at 37 °C unless varied (NaCl, protein, temperature, time); hexamer peak quantified by SEC; second-order fit T+T→H. On the technique in general: In gel filtration, larger molecules generally elute earlier.
The target in data set [6] is T1, bovine α1 NC1 monomer (collagen IV …). The data set is described as above. As to conditions: both partners purified.
Data set [7] concerns the target T2, human collagen IV α1-chain NC1 domain, first domain of the single-chain trimer (residues 1438–1666) (human, UniProt P02462 1438-1666).
T2 construct: collagen IV α1-chain NC1 domain, human, residues 1438–1666; Not a free protein: joined by a GTG linker to m5 on the single chain m1; written apart for the domain-domain contacts in the crystal structure; also called α1 NC1 domain; not shown: FLAG, N-terminal, kept
T2 sequence (looked up): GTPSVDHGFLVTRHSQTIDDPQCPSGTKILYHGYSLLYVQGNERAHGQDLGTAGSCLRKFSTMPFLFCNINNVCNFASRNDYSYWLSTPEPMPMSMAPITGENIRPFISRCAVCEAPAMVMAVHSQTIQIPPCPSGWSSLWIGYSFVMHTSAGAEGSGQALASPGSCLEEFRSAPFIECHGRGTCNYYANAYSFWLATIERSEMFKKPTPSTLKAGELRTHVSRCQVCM
Briefly: crystal structure; X-ray, 1.9 Å, space group P4_(1)2_(1)2; protein 11 mg/ml in 5 mM Tris-HCl pH 7.5, 150 mM NaCl; hexamer by crystallographic 2-fold. As to conditions: both partners purified.

In data set [8] the target is B3. The description is as above. As to conditions: both partners purified.

B1: single-chain α121 NC1 trimer (sc121 NC1-trimer) (other, human)
chain: GTPSVDHGFLVTRHSQTIDDPQCPSGTKILYHGYSLLYVQGNERAHGQDLGTAGSCLRKFSTMPFLFCNINNVCNFASRNDYSYWLSTPEPMPMSMAPITGENIRPFISRCAVCEAPAMVMAVHSQTIQIPPCPSGWSSLWIGYSFVMHTSAGAEGSGQALASPGSCLEEFRSAPFIECHGRGTCNYYANAYSFWLATIERSEMFKKPTPSTLKAGELRTHVSRCQVCMGTGYLLVKHSQTDQEPMCPVGMNKLWSGYSLLYFEGQEKAHNQDLGLAGSCLARFSTMPFLYCNPGDVCYYASRNDKSYWLSTTAPLPMMPVAEDEIKPYISRCSVCEAPAIAIAVHSQDVSIPHCPAGWRSLWIGYSFLMHTAAGDEGGGQSLVSPGSCLEDFRATPFIECNGGRGTCHYYANKYSFWLTTIPEQSFQGSPSADTLKAGLIRTHISRCQVCMAPGFLVTRHSQTIDDPQCPSGTKILYHGYSLLYVQGNERAHGQDLGTAGSCLRKFSTMPFLFCNINNVCNFASRNDYSYWLSTPEPMPMSMAPITGENIRPFISRCAVCEAPAMVMAVHSQTIQIPPCPSGWSSLWIGYSFVMHTSAGAEGSGQALASPGSCLEEFRSAPFIECHGRGTCNYYANAYSFWLATIERSEMFKKPTPSTLKAGELRTHVSRCQVCMRRT
notes: collagen IV α1-chain NC1 domain, human, residues 1438–1666; artificial Gly–Thr–Gly linker between α1 and α2; collagen IV α2-chain NC1 domain, human, residues 1490–1709; artificial Ala–Pro–Gly linker between α2 and α1; collagen IV α1-chain NC1 domain, human, residues 1446–1669 (including final C-terminal residues); Vector-derived residues between the FLAG tag and the first α1 residue may be …
As to B1, the binding result in data set [1] and in data set [2] was “binds” in each case. For the same molecule, binding in data set [3] was characterised by a dissociation constant (Kd) of 37 µM. Further, the “stoichiometry N” value in data set [4] was found to be 2. The molecule further registered a kon in data set [5] of 3.45 ± 0.12 M⁻¹ s⁻¹.
As for B2, the binding result in data set [6] is “binds”.
As for B3, the binding result in data set [7] is “binds”.

B4: human collagen IV α2-chain NC1 domain, second domain of the single-chain trimer (residues 1490–1709) (domain or fragment, UniProt P08572 1490-1709, looked up)
chain: YLLVKHSQTDQEPMCPVGMNKLWSGYSLLYFEGQEKAHNQDLGLAGSCLARFSTMPFLYCNPGDVCYYASRNDKSYWLSTTAPLPMMPVAEDEIKPYISRCSVCEAPAIAIAVHSQDVSIPHCPAGWRSLWIGYSFLMHTAAGDEGGGQSLVSPGSCLEDFRATPFIECNGGRGTCHYYANKYSFWLTTIPEQSFQGSPSADTLKAGLIRTHISRCQVCM
notes: collagen IV α2-chain NC1 domain, human, residues 1490–1709; Not a free protein: joined by GTG (N-terminal side, to m4) and APG (C-terminal side, to m6) linkers on the single chain m1; also called α2 NC1 domain
Turning to B4, the binding result in data set [8] and in data set [7] was “binds” in each case.
